B1: Hspb1 pS9 (protein, UniProt P14602 1-209, looked up)
Heat shock protein beta-1: MTERRVPFSLLRSPSWEPFRDWYPAHSRLFDQAFGVPRLPDEWSQWFSAAGWPGYVRPLPAATAEGPAAVTLAAPAFSRALNRQLSSGVSEIRQTADRWRVSLDVNHFAPEELTVKTKEGVVEITGKHEERQDEHGYISRCFTRKYTLPPGVDPTLVSSSLSPEGTLTVEAPLPKAVTQSAEITIPVTFEARAQIGGPEAGKSEQSGAK
modifications: phosphorylated S9
B2: Hspb6 pS16 (protein, UniProt P97541 1-162, looked up)
Heat shock protein beta-6: MEIRVPVQPSWLRRASAPLPGFSTPGRLFDQRFGEGLLEAELASLCPAAIAPYYLRAPSVALPTAQVPTDPGYFSVLLDVKHFSPEEISVKVVGDHVEVHARHEERPDEHGFIAREFHRRYRLPPGVDPAAVTSALSPEGVLSIQATPASAQASLPSPPAAK
modifications: phosphorylated at S16
B3: Matr3 pT150 (protein, UniProt P43244 2-845, looked up)
Matrin-3: SKSFQQSSLGRDSQGHGRDLSAAGIGLLAAATQSLSMPASLGRMNQGTARLASLMNLGMSSSLNQQGAHSALSSASTSSHNLQSIFNIGSRGPLPLSSQHRGDTDQASNILASFGLSARDLDELSRYPEDKITPENLPQILLQLKRRRTEEGPTLSYGRDGRSATREPPYRVPRDDWEEKRHFRRDSFDDRGPSLNPVLDYDHGSRSQESGYYDRMDYEDDRLRDGERCRDDSFFGETSHNYHKFDSEYERMGRGPGPLQERSLFEKKRGAPPSSNIEDFHGLLPKGYPHLCSICDLPVHSNKEWSQHINGASHSRRCQLLLEIYPEWNPDNDTGHTMGDPFMLQQSTNPAPGILGPPPPSFHLGGPAVGPRGNLGAGNGNLQGPRHMQKGRVETSRVVHIMDFQRGKNLRYQLLQLVEPFGVISNHLILNKINEAFIEMATTEDAQAAVDYYTTTPALVFGKPVRVHLSQKYKRIKKPEGKPDEKFDQKQELGRVIHLSNLPHSGYSDSAVLKLAEPYGKIKNYILMRMKSQAFIEMETREDAMAMVDHCLKKALWFQGRCVKVDLSEKYKKLVLRIPNRGIDLLKKDKSRKRSYSPDGKESPSDKKSKTDGAQKTENPAEGKEQEEKSGEDGEKDTKDDQTEQEPSMLLESEDELLVDEEEAAALIESGSSVGDETDLANLGDVSSDGKKEPSDKAVKKDASATSKKKLKKVDKIEELDQENEAALENGIKNEENTEPGAESAENADDPNKDASDNSDGQNDENKEDYTIPDEYRIGPYQPNVPGGIDYVIPKTGFYCKLCSLFYTNEEVAKNTHCSSLPHYQKLKKFLNKLAEERRQKKES
modifications: phosphorylated at T150
B4: Matr3 pS188 (protein, UniProt P43244 2-845, looked up)
Matrin-3: B3 Matrin-3
modifications: phosphorylated at S188
B5: Hmga1 pS36 (protein, UniProt P17095 2-107, looked up)
High mobility group protein …: SESGSKSSQPLASKQEKDGTEKRGRGRPRKQPPVSPGTALVGSQKEPSEVPTPKRPRGRPKGSKNKGAAKTRKVTTAPGRKPRGRPKKLEKEEEEGISQESSEEEQ
modifications: phosphorylated S36
B6: Lrpprc pS656 (protein, UniProt Q5SGE0 78-1392, looked up)
Leucine-rich PPR …: SGSQFDWALMRLDNSVRRTGRITKGLLQKVFESTCRSGSPGSNQALLLLRSCGSLLPELSLAERTEFAHKIWDKLQQLGTVYDVSHYNALLKVYLQNEYRFSPTDFLAKMEGANIQPNRVTYQRLIAAYCSVGDIEGASKILGFMKTRDLPITEAVFSALVTGHARAGDMESAENILTVMKQAGIEPGPDTYLALLNAHAEKGDIDHVKQILEKVEKSDHYFMDRDFLQIIVSFSKAGYPQYVSEILEKITYERRSIPDAMNLILLLVTEKLEDTAFQVLLALPLARDETSSSFGSFFLRHCVTMDTPAEKLIDYCKRLRDAKVHSSSLQFTLHCALQANKTALAKAVMEALRDEGFPIRTHYFWPLLVGHQKTKNVQGIIDILKIMKEMGVDPDQETYINYVFPCFGSVQSARAALQENKCLPKSTTFAQAEVRNEAINGNLQNILSFLESNALPFSFNSLRGSLILGFRRSMNIDLWSKITELLYKDDRYCQKPPGPTEAVGYFLYNLIDSMSDSEVQAKEERLRQYFHQLREMNVKVSENIYKGICNLLDNYHVPELIKDVKVLVDREKIDSRKTSQFTSSDLESTLEKLKAEGHPVGDPLKQLILLLCSEENMQKALEVKAKYESDMVIGGYAALINLCCRHDNAEDALNLKQEFDRLDPSAVLDTAKYVALVKVLGKHGRVQDAINILKEMKEKDVVIKDAAVLSFFHILNGAALRGEIETVKQLHEAIVTLGLAKPSSNISFPLVTVHLEKDDLPAALEASIACHEKYKVLPRIHDVLCKLIEKGETDLIQKAMDFVSQEQGEMSMLYDLFFAFLQTGNYKEAKKIIETPGIRARPTRLQWFCDRCIANNQVETLEKLVELTEKLFECDRDQMYYNLLKLYKISGDWQRADAVWNKMQEENLIPRERTLRLLAGILKTSNQEVPFDVPELWFGDDRSSLSSSSPSAGDTVTEKMLLSDCRLKKSKDAYNIFLKAEKQDVVFSSEAYSTLVGLLLSKDDFTRAMHVKDFAETHIKGFTLNGAASSLLIIAQVRRDYLKVALETLKAALDLEQVPSELAVTRLIQALALQGDVKSIETIQKMVKGLDAIELSRMVFINNIALAQMKNNEIDAAIENIEHMLASENQTVEHQYFGLSYLFRKVIEEQMEPALEKLSIMSERLANQFALYKPVTDLFLQLVDSGKVDEARALLERCGAIAEQTSILSVFCLRTSQKPKKAPVLKTLLELIPELRENDRVYSCSMKSYVADKDVASAKALYEHLTAKNMKLDDLFLKRYASLLKDVGEPVPFTEPPESFGFYIKQLKEARENPS
modifications: phosphorylated at S656
B7: Jph2 pS240 (protein, UniProt Q2PS20 1-692, looked up)
Junctophilin-2: MSGGRFDFDDGGAYCGGWEGGKAHGHGLCTGPKGQGEYSGSWNFGFEVAGVYTWPSGNTFEGYWSQGKRHGLGIETKGRWLYKGEWTHGFKGRYGIRQSTNSGAKYEGTWNNGLQDGYGTETYADGGTYQGQFTNGMRHGYGVRQSVPYGMAVVVRSPLRTSLSSLRSEHSNGTVAPDSPAADGPTLPLPPVPRGGFALSLLATAEAARPPGLFTRGALLGRLRRSESRTSLGSQRSRLSFLKSELSSGASDAASTGSLAEGAEGPDDAAAPFDADIDATTTETYMGEWKNDKRSGFGVSERSSGLRYEGEWLDNLRHGYGRTTLPDGHREEGKYRHNVLVKGTKRRVLPLKSNKVRQKVEHGVEGAQRAAAIARQKAEIAASRTSHAKAKAEAAEQAALAANQESNIARTLAKELAPDFYQPGPEYQKRRLLQEILENSESLLEPRERGPGTGLPERPRESPQLHERETPQPEGGPPSPAGTPPQPKRPRPGSSKDGLLSPGAWNGEPGGEGSRPATPSDGAGRRSPARPASEHMAIEALQPPPAPSREPEVALYRGYHSYAVRTGPPEPPPLEDEPEPEPEVPRSDSEPPSPVSATVQEEESPAPRSRVPAKPATLEPKPIVPKAEPKAKARKTEARGLSKAGAKKKGRKEVAQEAEAEVEVEEVPNTVLICMVILLNIGLAILFVHLLT
modifications: phosphorylated at S240
B8: Rrad pS25 (protein, UniProt P55043 1-306, looked up)
GTP-binding protein RAD: MTLNGGSGAGGSRSAGRERDRRRGSTPWGPAPPLHRRSMPVDERDLQAALTPGSLAATAAGTRTQGQRLDWPEGSSDSLSSGDSGSEDGVYKVHAAGAPGVGKSALARIFGGVEDGPEAEAAGHTYDRSITVDGEEASLMVYDIWEQDGGCWLPGHCMAMGDAYVIVYSITDKGSFEKASELRVQLRARRQTDVPIILVGNKSDLVRSREVSVDEGRACAEVFDCKFIETSAALHHNVQALFEGVVRQIRLRRDSKEDNARRQAGTRRRESLGKKAKLFLGRIVARNSRKMAFLAKSKSCHDLSVL
modifications: phosphorylated at S25

Each molecule was assayed on PKGIα (analogue-sensitive C42S/M438G), cGMP-activated (assay: Chemical genetic phosphoproteomic screen, cGMP-activated PKGIα C42S/M438G versus unactivated control). Details: control = PKGIα C42S/M438G.
Assay type: biochemical, human PKGIα; substrates in rat heart homogenate
Outline: (§1)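 Substrates in rat left-ventricle homogenate (20 mg ml) are labelled by engineered Met438Gly PKGIα given a bulky N6-alkylated ATPγS analogue, either as disulfide-activated M438G (oxidized, DTT-free) or as cGMP-activated C42S/M438G. Covalent capture and LC–MS/MS identify sites relative to unactivated kinase.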

Molecule	log2 fold change cGMP vs Control
B1	1.482
B2	2.607
B3	3.582
B4	1.38
B5	4.39
B6	4.57
B7	0.1615
B8	-0.2363

The molecules below were run on PKGIα (analogue-sensitive M438G), disulfide-activated (assay: Chemical genetic phosphoproteomic screen, disulfide-activated PKGIα M438G versus unactivated control). Details: control = PKGIα C42S/M438G.
Assay type: biochemical, human PKGIα; substrates in rat heart homogenate
Outline: as §1

Molecule	log2 fold change Disulfide vs Control
B1	-0.3759
B2	1.245
B3	1.381
B4	-0.9169
B5	1.6764
B6	0.7702
B7	0.2694
B8	-0.2493
